Experimental data published in US20230242654A1 (published 2023).

Molecular target: anti-CD19 CAR having an scFv derived from FMC63 (expressed on T cells) (Mus musculus (Mouse), UniProt P01644 1-106)
Experiment: cell-based or functional assay

anti-CD19 CAR having an scFv derived from FMC63 (expressed on T cells), sequence (VH, as listed by the source, chain 1 of 2): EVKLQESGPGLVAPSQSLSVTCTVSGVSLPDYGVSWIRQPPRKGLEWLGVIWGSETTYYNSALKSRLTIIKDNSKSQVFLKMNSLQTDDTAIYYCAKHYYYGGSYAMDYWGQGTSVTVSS
anti-CD19 CAR having an scFv derived from FMC63 (expressed on T cells), sequence (P01644 other isoform, or with tags, fused parts or gaps, chain 2 of 2): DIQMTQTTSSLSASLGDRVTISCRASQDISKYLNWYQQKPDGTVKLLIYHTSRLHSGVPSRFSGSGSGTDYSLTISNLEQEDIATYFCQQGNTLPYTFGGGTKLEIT

B1: Anti-ID B-1 (FMC63-derived scFv-specific anti-idiotype antibody) (antibody, mouse IgG2a, kappa, V domains shown)
VH: EVQLQQSGPELVKPGASVKMSCKASGYTFTDYYMKWVKQCHGKSLEWIGDINPNNGGTDYNQNFKGKATLTVDKSSSTAYMQLNSLTSEDSAVYYCAREGNNYGSRDAMDYWGQGTSVTVSS
VL: QIVLTQSPALMSASPGEKVTMTCSASSGVIYMYWYQQKPRSSPKPWIYLTSNLASGVPARFSGSGSGTSYSLTISSMEAEDAATYYCQQWSSNPLTFGAGTKLELKR
- fold expansion of CAR-expressing (EGFRt+) CD4+ T cells cultured alone with anti-ID B-1 conjugated beads, up to 9 days: > 60 fold
